Reference: US5635384 (DowElanco, dated 1997)

Biological target: T1, maize αβ RIP β fragment (maize)
T1 chain: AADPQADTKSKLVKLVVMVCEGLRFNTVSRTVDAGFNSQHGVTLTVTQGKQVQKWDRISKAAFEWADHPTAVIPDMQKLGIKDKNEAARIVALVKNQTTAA
Assay: reverse phase and ion exchange chromatography

B1: maize αβ RIP α fragment (other)
chain: KRIVPKFTEIFPVEDANYPYSAFIASVRKDVIKHCTDHKGIFQPVLPPEKKVPELWFYTELKTRTSSITLAIRMDNLYLVGFRTPGGVWWEFGKDGDTHLLGDNPRWLGFGGRYQDLIGNKGLETVTMGRAEMTRAVNDLAKKKK
binding result: binds
